Earlier results, collected in article PMC130215.

Target: LIR-1 (ILT2) (Homo sapiens) (UniProt Q8NHL6)
Chain of UniProt Q8NHL6 (Q8NHL6 24-461): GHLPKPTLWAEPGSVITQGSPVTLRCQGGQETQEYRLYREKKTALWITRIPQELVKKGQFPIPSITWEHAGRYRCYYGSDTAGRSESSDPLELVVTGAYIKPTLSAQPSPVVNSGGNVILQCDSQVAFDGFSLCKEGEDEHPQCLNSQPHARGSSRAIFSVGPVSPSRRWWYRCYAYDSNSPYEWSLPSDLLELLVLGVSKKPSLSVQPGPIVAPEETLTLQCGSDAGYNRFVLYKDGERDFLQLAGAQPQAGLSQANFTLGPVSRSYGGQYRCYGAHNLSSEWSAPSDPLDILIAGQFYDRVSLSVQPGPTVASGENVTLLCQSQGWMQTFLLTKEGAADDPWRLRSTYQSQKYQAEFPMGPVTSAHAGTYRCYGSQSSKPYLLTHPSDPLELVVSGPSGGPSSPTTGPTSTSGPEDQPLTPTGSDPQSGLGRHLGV

In the case of UL18 (from UniProt P08560), the Kd is listed as 2 nM.
